The experiment addresses HIV-1 clade C (CZA97.012) gp140 Env trimer (HIV-1 clade C, strain CZA97.012). In words: SEC. A general note: SEC sorts molecules by how far they enter the pores of the column.

Regarding “HIV-1 clade C (CZA97.012) gp140 Env trimer (natural protein)”, the stoichiometry N (as a rule, a count of units in the complex or per binding partner) was 3.

For the origin of these results see article PMC3980048.
